{"source": "paper PMC3605390", "about": "“Characterisation of ATP-Dependent Mur Ligases Involved in the Biogenesis of Cell Wall Peptidoglycan in Mycobacterium tuberculosis” (PLoS ONE, 2013)", "key": {"[1]": {"test_system": "CC(=O)N[C@H]1[C@@H](OP(=O)(O)OP(=O)(O)OC[C@H]2O[C@@H](n3ccc(=O)[nH]c3=O)[C@H](O)[C@@H]2O)O[C@H](CO)[C@@H](O)[C@@H]1O[C@H](C)C(=O)N[C@@H](C)C(=O)N[C@H](CCC(=O)N[C@@H](CCC[C@@H](N)C(=O)O)C(=O)O)C(=O)O", "experiment": "purified protein", "conditions": "pH 8.5; 37.0 °C"}, "[2]": {"test_system": "C[C@@H](N)C(=O)N[C@H](C)C(=O)O", "experiment": "purified protein", "conditions": "pH 8.5; 37.0 °C"}}}
{"substance": "MurF (Mycobacterium tuberculosis H37Rv)", "values": [{"measurement": "Km", "setting": "[1]", "result": "64.5 ± 0.2", "unit": "µM"}, {"measurement": "kcat/Km", "setting": "[1]", "result": "21700 ± 200", "unit": "M⁻¹ s⁻¹"}, {"measurement": "Km", "setting": "[2]", "result": "78.1 ± 0.2", "unit": "µM"}, {"measurement": "kcat/Km", "setting": "[2]", "result": "18100 ± 300", "unit": "M⁻¹ s⁻¹"}]}
